From paper PMC5577365 (Nature chemical biology, 2017)
Ends that are not written are not given here.

How the values were obtained:
[1] = biological target: wild-type Abl1 (ABL1 SH3 domain) (human, UniProt P00519 61-121); assay: fluorescence polarisation
[2] = biological target: Abl1-Pmp52 (ABL1 SH3 domain with Pmp at position 52) (human, 4-phosphomethyl-L-phenylalanine (Pmp) at position 52); assay: fluorescence polarisation

wild-type Abl1 (ABL1 SH3 domain), sequence (P00519 whole entry, looked up, the tested form may be a part): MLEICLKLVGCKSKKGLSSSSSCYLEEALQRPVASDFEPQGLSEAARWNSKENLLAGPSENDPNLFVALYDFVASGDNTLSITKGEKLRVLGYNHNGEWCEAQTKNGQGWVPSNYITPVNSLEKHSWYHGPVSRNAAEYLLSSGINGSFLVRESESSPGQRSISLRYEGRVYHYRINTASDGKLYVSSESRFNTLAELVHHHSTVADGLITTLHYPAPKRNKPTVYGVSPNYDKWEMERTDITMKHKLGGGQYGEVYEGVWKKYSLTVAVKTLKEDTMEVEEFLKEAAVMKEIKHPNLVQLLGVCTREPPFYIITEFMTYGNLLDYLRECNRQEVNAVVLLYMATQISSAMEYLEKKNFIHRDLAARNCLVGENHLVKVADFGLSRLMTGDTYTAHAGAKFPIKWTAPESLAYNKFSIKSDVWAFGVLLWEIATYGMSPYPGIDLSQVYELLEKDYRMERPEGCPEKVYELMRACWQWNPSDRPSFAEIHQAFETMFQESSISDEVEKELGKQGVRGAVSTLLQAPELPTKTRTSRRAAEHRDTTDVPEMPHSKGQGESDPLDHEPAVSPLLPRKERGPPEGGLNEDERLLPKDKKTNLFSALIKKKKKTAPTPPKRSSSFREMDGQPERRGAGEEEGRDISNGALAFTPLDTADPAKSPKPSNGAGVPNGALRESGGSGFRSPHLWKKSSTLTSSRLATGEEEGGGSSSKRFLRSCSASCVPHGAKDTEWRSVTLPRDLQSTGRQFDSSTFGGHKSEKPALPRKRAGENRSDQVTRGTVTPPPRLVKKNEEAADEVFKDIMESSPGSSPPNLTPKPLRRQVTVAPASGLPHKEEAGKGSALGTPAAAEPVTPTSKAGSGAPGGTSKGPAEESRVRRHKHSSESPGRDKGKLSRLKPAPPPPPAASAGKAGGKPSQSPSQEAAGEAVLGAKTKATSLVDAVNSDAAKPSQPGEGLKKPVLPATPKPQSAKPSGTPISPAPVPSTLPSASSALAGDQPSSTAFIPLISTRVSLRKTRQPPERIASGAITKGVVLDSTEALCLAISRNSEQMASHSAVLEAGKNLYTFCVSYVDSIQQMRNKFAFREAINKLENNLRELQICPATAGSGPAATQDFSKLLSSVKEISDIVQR

B1: 3BP2 peptide (FAM labeled) (peptide)
chain: PPAYPPPPVP
modifications: also: FAM label, position not given here
For B1, the Kd [1] was 5 ± 0.8 µM and the Kd [2] was 5 ± 0.8 µM.
